Key:
Hck = Hck (UniProt P08631); assay: phosphorylation enrichment, bacterial display (enrichment ratio); higher = better substrate or ligand; peptides without Tyr show the background
FGFR1 = FGFR1 (UniProt P11362); assay: as above
c-Abl (mouse) = assay: as above
EPHB1 = EPHB1 (UniProt P54762); assay: as above
MERTK = MERTK (UniProt Q12866); assay: as above
AncSZ = assay: as above
c-Src = assay: as above
Jak2 = Jak2 (UniProt O60674); assay: as above
Fes = Fes (UniProt P07332); assay: as above
EPHB2 = EPHB2 (UniProt P29323); assay: as above
Chain of EPHB2 (P29323 whole entry, looked up): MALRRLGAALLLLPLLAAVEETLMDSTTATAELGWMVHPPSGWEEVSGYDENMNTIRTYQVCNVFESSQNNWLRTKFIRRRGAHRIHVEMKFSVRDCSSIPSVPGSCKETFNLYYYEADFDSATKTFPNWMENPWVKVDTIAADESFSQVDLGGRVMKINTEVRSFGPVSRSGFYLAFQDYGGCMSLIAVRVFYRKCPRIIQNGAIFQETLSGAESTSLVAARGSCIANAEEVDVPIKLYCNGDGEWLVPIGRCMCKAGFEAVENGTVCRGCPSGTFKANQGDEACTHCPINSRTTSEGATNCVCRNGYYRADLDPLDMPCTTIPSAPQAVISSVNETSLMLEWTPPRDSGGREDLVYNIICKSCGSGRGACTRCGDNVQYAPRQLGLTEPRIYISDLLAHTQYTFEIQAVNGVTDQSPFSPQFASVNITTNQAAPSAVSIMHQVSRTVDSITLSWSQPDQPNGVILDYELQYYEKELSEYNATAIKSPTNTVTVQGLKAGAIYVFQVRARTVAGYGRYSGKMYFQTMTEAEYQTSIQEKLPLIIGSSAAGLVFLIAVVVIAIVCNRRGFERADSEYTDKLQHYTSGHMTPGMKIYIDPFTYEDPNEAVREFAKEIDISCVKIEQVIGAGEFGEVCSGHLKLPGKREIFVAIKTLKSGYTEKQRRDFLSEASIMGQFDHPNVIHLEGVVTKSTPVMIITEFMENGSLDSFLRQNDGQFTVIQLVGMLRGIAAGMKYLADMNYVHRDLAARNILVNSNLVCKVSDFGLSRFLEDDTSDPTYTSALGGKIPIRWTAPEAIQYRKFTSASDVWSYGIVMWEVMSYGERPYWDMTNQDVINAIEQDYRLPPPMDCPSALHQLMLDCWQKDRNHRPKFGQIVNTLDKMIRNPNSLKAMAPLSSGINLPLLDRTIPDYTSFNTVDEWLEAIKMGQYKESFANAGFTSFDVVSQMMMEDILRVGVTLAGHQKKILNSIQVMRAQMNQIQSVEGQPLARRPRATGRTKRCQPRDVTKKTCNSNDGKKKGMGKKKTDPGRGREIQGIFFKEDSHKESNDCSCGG

FGFR3 = FGFR3 (UniProt P22607); assay: as above
Chain of FGFR3 (P22607 whole entry, looked up): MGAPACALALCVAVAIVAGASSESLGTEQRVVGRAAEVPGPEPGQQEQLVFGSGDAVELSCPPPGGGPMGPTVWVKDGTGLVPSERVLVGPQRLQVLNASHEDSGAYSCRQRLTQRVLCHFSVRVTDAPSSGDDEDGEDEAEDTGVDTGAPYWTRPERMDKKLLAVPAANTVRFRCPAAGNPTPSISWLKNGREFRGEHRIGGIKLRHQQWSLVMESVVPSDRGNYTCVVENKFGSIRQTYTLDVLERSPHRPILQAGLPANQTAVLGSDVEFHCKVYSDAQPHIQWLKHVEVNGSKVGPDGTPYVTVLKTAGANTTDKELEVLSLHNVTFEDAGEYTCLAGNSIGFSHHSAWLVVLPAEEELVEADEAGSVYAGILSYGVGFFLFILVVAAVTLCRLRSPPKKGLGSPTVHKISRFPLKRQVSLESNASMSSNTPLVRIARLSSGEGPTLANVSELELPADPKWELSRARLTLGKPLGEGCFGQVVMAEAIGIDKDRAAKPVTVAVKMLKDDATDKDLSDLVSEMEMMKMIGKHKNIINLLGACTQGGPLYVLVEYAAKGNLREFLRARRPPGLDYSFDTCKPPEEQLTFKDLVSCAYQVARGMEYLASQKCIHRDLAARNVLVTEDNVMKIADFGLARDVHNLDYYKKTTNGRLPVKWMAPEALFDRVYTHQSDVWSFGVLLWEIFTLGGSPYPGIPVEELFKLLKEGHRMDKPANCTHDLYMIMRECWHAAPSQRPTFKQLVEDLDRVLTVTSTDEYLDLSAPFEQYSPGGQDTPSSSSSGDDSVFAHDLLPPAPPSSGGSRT

Fyn = Fyn (UniProt P06241); assay: as above
Chain of Fyn (P06241 whole entry, looked up): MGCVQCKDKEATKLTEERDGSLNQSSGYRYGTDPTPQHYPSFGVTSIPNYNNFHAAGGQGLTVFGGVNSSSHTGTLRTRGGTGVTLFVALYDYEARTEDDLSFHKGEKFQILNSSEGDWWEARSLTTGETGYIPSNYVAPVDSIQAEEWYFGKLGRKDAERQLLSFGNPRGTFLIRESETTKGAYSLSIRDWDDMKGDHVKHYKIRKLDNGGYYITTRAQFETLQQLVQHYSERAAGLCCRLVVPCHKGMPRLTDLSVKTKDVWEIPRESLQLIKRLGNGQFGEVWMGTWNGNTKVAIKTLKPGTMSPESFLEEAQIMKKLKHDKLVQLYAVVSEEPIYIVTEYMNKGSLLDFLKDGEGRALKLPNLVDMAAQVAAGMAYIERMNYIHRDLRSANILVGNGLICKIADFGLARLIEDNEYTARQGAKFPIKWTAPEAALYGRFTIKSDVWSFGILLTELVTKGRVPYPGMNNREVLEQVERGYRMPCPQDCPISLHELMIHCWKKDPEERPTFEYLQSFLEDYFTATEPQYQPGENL

Fer (mouse) = assay: as above
Grb2 SH2 = Grb2 SH2 (UniProt P62993); assay: SH2 binding enrichment of the phosphorylated peptide, bacterial display (enrichment ratio); higher = better substrate or ligand; peptides without Tyr show the background
Chain of Grb2 SH2 (P62993 whole entry, looked up): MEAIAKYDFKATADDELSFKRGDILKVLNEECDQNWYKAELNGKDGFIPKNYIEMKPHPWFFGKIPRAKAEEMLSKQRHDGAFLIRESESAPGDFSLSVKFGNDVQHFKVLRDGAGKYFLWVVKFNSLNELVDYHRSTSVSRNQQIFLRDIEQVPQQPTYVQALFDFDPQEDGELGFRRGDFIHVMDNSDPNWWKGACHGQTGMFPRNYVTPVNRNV

c-Src SH2 = assay: as above
SHP2-C SH2 = assay: as above
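For SH2 binding enrichment of the phosphorylated peptide, bacterial display in this document: peptide library displayed on the E. coli surface as eCPX fusions, selected cells deep-sequenced, score is each peptide's frequency after selection divided by its frequency in the input.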
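For phosphorylation enrichment, bacterial display in this document: 11-residue human phosphosite peptides and single-mutation variants displayed on the E. coli surface, counted by deep sequencing, each peptide's frequency after selection divided by its frequency in the unselected input library; frequency after pTyr selection over input frequency; kinase dosed for 20-30% of maximal phosphorylation in three min.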

Chain of FGFR1 (P11362 whole entry, looked up): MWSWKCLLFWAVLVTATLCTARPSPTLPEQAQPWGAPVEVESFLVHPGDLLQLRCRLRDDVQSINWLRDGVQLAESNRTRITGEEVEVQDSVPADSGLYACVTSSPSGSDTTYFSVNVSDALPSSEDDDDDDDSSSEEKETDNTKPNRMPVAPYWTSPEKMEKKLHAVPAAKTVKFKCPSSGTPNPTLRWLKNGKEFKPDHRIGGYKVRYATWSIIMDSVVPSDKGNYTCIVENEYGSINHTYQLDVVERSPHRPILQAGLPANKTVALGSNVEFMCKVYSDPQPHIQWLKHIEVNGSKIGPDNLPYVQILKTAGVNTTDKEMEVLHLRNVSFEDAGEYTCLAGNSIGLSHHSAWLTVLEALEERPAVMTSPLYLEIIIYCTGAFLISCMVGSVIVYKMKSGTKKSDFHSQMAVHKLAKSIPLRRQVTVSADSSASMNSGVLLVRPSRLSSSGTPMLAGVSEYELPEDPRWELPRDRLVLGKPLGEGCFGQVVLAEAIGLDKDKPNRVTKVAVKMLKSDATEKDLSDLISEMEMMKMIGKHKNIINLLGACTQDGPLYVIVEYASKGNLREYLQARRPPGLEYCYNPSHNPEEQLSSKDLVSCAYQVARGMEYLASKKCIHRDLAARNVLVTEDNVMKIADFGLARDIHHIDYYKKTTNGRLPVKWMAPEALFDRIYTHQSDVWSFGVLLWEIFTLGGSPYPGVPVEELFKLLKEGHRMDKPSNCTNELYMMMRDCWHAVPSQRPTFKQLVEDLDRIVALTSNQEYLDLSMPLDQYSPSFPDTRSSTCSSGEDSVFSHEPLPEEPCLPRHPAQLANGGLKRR
Chain of EPHB1 (P54762 whole entry, looked up): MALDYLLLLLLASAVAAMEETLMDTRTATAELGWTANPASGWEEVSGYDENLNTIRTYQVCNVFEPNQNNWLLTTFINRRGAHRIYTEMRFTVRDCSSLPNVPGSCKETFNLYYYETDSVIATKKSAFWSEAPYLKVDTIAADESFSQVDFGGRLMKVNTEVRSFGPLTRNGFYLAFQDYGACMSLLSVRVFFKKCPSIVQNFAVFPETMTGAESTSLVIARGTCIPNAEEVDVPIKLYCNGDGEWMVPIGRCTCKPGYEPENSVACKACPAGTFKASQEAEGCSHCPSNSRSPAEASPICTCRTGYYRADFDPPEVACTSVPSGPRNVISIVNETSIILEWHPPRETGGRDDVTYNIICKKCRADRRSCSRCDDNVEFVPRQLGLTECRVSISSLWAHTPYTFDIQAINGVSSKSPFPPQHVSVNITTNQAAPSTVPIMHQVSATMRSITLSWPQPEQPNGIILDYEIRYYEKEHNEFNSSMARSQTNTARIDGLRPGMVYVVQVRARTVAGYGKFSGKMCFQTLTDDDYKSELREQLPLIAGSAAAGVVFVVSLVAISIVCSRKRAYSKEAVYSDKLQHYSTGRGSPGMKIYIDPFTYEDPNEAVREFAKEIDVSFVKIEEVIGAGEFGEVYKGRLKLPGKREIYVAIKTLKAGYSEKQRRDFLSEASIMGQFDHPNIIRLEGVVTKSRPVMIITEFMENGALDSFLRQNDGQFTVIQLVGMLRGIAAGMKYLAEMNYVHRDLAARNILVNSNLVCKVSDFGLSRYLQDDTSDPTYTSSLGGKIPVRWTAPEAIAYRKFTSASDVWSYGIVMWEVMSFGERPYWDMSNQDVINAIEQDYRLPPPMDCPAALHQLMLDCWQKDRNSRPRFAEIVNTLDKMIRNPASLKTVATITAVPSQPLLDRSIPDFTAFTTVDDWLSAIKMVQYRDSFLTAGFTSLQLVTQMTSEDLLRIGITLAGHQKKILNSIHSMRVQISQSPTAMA
Chain of Hck (P08631 whole entry, looked up): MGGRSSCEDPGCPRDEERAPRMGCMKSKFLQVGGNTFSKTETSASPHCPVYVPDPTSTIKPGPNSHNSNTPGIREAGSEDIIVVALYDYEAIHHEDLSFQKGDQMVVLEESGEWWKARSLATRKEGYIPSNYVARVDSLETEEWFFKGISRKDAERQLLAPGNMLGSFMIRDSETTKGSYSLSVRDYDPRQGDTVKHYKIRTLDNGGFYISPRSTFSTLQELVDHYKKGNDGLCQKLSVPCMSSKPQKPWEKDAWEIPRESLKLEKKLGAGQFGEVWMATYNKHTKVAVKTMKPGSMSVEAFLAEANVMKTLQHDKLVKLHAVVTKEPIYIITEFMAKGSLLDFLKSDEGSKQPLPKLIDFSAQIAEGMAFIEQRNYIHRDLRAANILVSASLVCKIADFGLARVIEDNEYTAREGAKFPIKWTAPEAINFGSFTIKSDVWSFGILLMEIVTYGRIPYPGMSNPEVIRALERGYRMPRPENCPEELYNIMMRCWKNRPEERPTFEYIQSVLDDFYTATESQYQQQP

Sequence	phosphorylation enrichment (Hck)	phosphorylation enrichment (FGFR1)	phosphorylation enrichment (c-Abl (mouse))	phosphorylation enrichment (EPHB1)	phosphorylation enrichment (MERTK)	phosphorylation enrichment (AncSZ)	phosphorylation enrichment (c-Src)	phosphorylation enrichment (Jak2)	phosphorylation enrichment (Fes)	phosphorylation enrichment (EPHB2)	phosphorylation enrichment (FGFR3)	phosphorylation enrichment (Fyn)	phosphorylation enrichment (Fer (mouse))	SH2 binding enrichment (Grb2 SH2)	SH2 binding enrichment (c-Src SH2)	SH2 binding enrichment (SHP2-C SH2)
FPMLNYKDIRK [CFAP221_Y798]	0.441	0.346	0.398	0.292	0.431	0.49	0.416	0.469	0.628	0.384	0.408	0.493	0.362	0.976	0.516	0.635
FPPTHYIRRMP [SLC4A11_Y820_V824M_YF]	0.601	0.498	0.718	0.528	0.524	0.919	0.543	0.597	0.981	0.661	0.502	0.561	0.445	0.982	0.506	0.821
FQEKGYNKELR [CHRND_Y38]	0.351	0.471	0.45	0.45	0.382	0.675	0.378	0.57	0.74	0.268	0.519	0.335	0.376	0.814	0.485	0.882
FQEKSYIKGTS [LCTL_Y331_L326F]	0.398	0.423	0.612	0.33	0.321	0.625	0.457	0.87	0.657	0.531	0.426	0.364	0.355	0.918	0.416	0.553
FRQLPYCPSVE [CTNND2_Y508_Q507P_YF]	0.776	0.526	0.837	0.647	0.486	1.25	0.499	1.08	1.39	0.748	1.2	0.538	0.603	0.722	0.458	0.472
FRQLQYCPSVE [CTNND2_Y508_YF]	0.499	0.525	0.808	0.669	0.478	0.949	0.456	0.901	1.15	0.605	0.861	0.501	0.514	0.876	0.489	0.658
FSDPSYVKQME [CDC5L_Y464_YF]	0.505	0.558	0.471	0.476	0.407	0.867	0.411	0.704	0.939	0.581	1.36	0.532	0.452	0.883	0.518	0.892
FSGDCYRIQGR [DDR2_Y741_Y740C_YF]	0.472	0.431	0.636	0.593	0.35	0.989	0.45	0.764	1.05	0.659	0.666	0.446	0.493	0.806	0.502	0.661
FSLPAYMDRRD [COX4I1_Y38]	0.492	0.464	0.87	0.459	0.425	0.873	0.424	0.696	0.815	0.471	0.622	0.355	0.432	0.772	0.626	0.72
FSMGCYEFSLG [HMGCL_Y198_I200F_YF]	0.706	0.733	1.47	1.12	0.964	2.26	1.25	1.2	1.53	0.984	1.14	0.881	3	0.923	0.498	0.976
FSPGSNERETF [NF1_Y2192_Y2192N]	0.484	0.53	0.599	0.408	0.414	0.835	0.424	0.849	0.856	0.605	0.583	0.484	0.538	0.886	0.447	0.662
FSQQVYRVNLS [FAT4_Y480]	0.392	0.49	0.532	0.563	0.409	0.658	0.623	0.762	0.729	0.48	0.516	1.01	0.495	0.827	0.48	0.882
FTNELYMMMRD [FGFR1_Y730_C725Y_YF]	1.99	1.54	0.57	3.18	3.53	1.37	1.29	0.938	1.24	1.69	1.53	1.1	0.752	0.844	0.604	0.661
FTRNFYVWAVL [CYBA_Y88_R90W_YF]	0.473	0.498	1.61	0.573	0.454	1.25	0.508	1.31	1.42	0.383	0.756	0.427	0.466	1.09	0.633	0.737
FVSAAYVKKLD [SPTAN1_Y1020_P1017S]	0.374	0.421	0.511	0.414	0.337	0.663	0.382	0.403	0.65	0.618	0.455	0.365	0.365	0.885	0.379	0.804
FVSIVYNDFGE [TSC2_Y1650_S1653F]	0.642	0.561	0.725	0.605	0.422	1.21	0.856	0.991	1.16	0.665	0.801	0.599	0.514	1.96	1.52	1.68
FVTCTYSPALN [TP53_Y126_S121F]	0.516	0.464	0.828	0.603	0.346	1.29	0.535	1.07	1.32	0.501	0.71	0.449	0.557	0.887	0.517	0.655

Sequence	phosphorylation enrichment (Hck)	phosphorylation enrichment (FGFR1)	phosphorylation enrichment (c-Abl (mouse))	phosphorylation enrichment (EPHB1)	phosphorylation enrichment (MERTK)	phosphorylation enrichment (AncSZ)	phosphorylation enrichment (c-Src)	phosphorylation enrichment (Jak2)	phosphorylation enrichment (Fes)	phosphorylation enrichment (EPHB2)	phosphorylation enrichment (FGFR3)	phosphorylation enrichment (Fyn)	phosphorylation enrichment (Fer (mouse))	SH2 binding enrichment (Grb2 SH2)	SH2 binding enrichment (c-Src SH2)	SH2 binding enrichment (SHP2-C SH2)
GAVGNYSRGLA [MGMT_Y158_G160R]	0.395	0.406	0.401	0.5	0.353	0.456	0.383	0.38	0.453	0.397	0.465	0.377	0.358	0.933	0.39	0.632
GCKNRYDEDKP [THAP1_Y14_K16E]	0.596	0.606	0.512	0.51	0.431	0.856	0.438	0.617	0.808	0.497	0.722	0.49	0.452	1.35	0.692	0.722
GCKNRYDKGKP [THAP1_Y14_D17G]	0.496	0.387	0.798	0.481	0.408	0.597	0.406	0.876	0.867	0.469	1.04	0.434	0.4	1.5	1.32	1.32
GCVRMYELVHR [GLE1_Y135]	1.64	0.498	0.754	7.65	2.95	1.07	0.761	1.01	1.28	3.69	0.71	0.599	4.34	1.06	2.25	0.908
GDGRFYMMEAI [PGM1_Y66_K68M]	0.459	0.511	0.735	0.569	0.46	1.04	0.88	1.16	1.26	0.553	0.731	0.51	0.539	0.683	0.419	0.584
GDPVQYNRTTD [MLPH_Y454]	0.381	0.465	0.78	0.521	0.429	0.705	0.452	0.959	1.04	0.551	0.7	0.412	0.435	0.812	0.459	0.738
GDRPVYSEDEQ [CHST6_Y362_Y358D]	0.662	0.667	1.06	0.812	0.565	1.54	0.673	1.27	1.57	0.702	0.872	0.698	0.653	0.992	0.82	0.639
GEDEPYSEPFA [APBA1_Y183_YF]	0.599	0.603	0.598	0.485	0.493	1.34	0.598	1.02	1.06	0.523	0.68	0.588	0.512	0.936	0.593	0.914
GESLTYVSTTF [C1orf162_Y120_A121V]	0.621	0.508	0.494	0.532	0.538	0.954	0.664	0.691	1.07	0.563	0.62	0.569	0.512	0.843	0.519	0.712
GFGGGYGGVLT [KRT19_Y65_A60G_YF]	0.488	0.491	0.493	0.452	0.381	0.626	0.45	0.575	0.696	0.444	0.522	0.47	0.492	1.06	0.478	0.999
GFPVHYTDMSN [DNMT3B_Y815_V818M]	0.417	0.546	0.568	0.388	0.545	0.947	0.416	0.667	0.699	0.439	0.501	0.536	0.419	0.787	3.25	6.03
GFPVHYTDVSN [DNMT3B_Y815]	0.433	0.439	0.5	0.477	0.526	0.661	0.398	0.51	0.653	0.485	0.686	0.43	0.708	0.793	3.96	7.67
GFSRHCEDGFP [CTNND1_Y217_Y217C_YF]	0.441	0.471	0.83	0.497	0.402	0.767	0.441	0.724	0.958	0.555	0.697	0.437	0.485	0.774	0.479	0.663
GFWPRYVKVGS [NOG_Y172_R167G]	0.532	0.554	0.568	0.594	0.447	0.746	0.402	0.695	0.97	0.532	0.653	0.493	0.388	0.645	0.443	0.834
GGQVFHNSEFG [FLT4_Y1333_Y1333H_YF]	0.379	0.448	0.531	0.4	0.395	0.593	0.377	0.534	0.668	0.451	0.572	0.424	0.375	0.761	0.505	0.714
GGYTCCCDGKK [PROS1_Y266_Y266C]	0.454	0.444	0.792	0.442	0.436	0.943	0.426	0.729	1	0.819	0.618	0.507	0.513	0.701	0.477	0.415
